Assay results published in patent US20260274984A1 (NATIONAL RESEARCH COUNCIL OF CANADA, published 2026).
Changes are numbered by the printed parent chain.

T1: recombinant mouse mesothelin extracellular domain (mMSLN-ECD) (mouse, UniProt Q61468 298-600, limits assumed)
T1 construct: extracellular domain; also called mouse MSLN; mouse MSLN-ECD
T1 sequence (looked up): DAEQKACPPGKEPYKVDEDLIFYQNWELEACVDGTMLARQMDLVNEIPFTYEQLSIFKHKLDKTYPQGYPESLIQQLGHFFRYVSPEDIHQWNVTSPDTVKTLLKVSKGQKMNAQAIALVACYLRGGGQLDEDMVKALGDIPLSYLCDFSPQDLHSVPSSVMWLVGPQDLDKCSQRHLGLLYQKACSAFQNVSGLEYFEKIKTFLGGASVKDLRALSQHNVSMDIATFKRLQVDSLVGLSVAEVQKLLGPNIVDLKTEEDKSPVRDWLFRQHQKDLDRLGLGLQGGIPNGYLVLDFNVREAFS

B1: hMSLN-biomTP7-41 (VHH)
VHH: QVQLVESGGGLVQPGGSLRLSCTASGIVRASGMAWYRQAPGKQRELVASITTGGETTWYADSVKGRFTISIDNAKMMLYLQMNALKPEDTAVYLCNQRSYWGQGTQVTVSS
modifications: C-terminal His tag and AviTag from vector pMRO; letters not given, left off
notes: Llama VHH expressed in E. coli; also called VHH # 9
B2: hMSLN-bioTP7-48 (VHH)
VHH: QVKLEESGGGLVQPGGSLRLSCTASGSIWSASGLTWYRQRPGNERELVASITTGGETTWYADSVKGRFTISISRDNGKMITYLQMNSLKPEDTAVYLCNSRSYWGQGTQVTVSS
notes: Llama VHH expressed in E. coli; also called VHH # 10
B3: hMSLN-TP7-5 (VHH)
VHH: QVKLEESGGGLVQAGGSLRISCAASGRSISDYFMGWFRQTPGKEREFVAAISWSGGTAYYADSVKGRFTISRDNAKNTGYLQMNSLKPEDTAVYFCAARLSYDSRTSLQNSYDYNYWGQGTQVTVSS
notes: Llama VHH expressed in E. coli; biotinylated form used in the Mirrorball assay; also called VHH # 2
B4: hMSLN-TP7-4 (VHH)
VHH: QVQLVGSGGGLVRAGGSLRLSCAGSGLTFGSYAMAWYRQAPGKQRELVASISSRGVTNYADSVEGRFTISRDNAKSTVYLQMNDLKPEDAAVYYCNAKGPFMLREYDYWGQGTQVTVSS
notes: Llama VHH expressed in E. coli BL21(DE3), IMAC purified, monomeric SEC fraction used for SPR; biotinylated form used in the Mirrorball assay; also called VHH # 1
B5: hMSLN-TP7-9 (VHH)
VHH: DVQLVDSGGGLVQAGGSLRLSCAASGRTVSTYNMAWFRQAPGKEREIVAVINWTGGSTYYAESVKGRFTISGDNPKNTVYLQMNSLKPEDTAVYYCAATRASWTENTYWGQGTQVTVSS
notes: Llama VHH expressed in E. coli; biotinylated form used in the Mirrorball assay; also called VHH # 3
B6: hMSLN-TP7-18 (VHH)
VHH: EVQLVESGGRLVQAGGSLRLSCVASGRAFKWWTMGWFRQAPGKEREFVASISWSDGSTTYGDSVKGRFAISRDNNKNTVYLQMNSLTPEDTAVYYCARYGKDLSGRHSKNVQDYDYWGQGTQVTVSS
notes: Llama VHH expressed in E. coli; also called VHH # 4
B7: hMSLN-mTP7-82 (VHH)
VHH: QVQLVESGGGLVQAGGSLRLSCAASGSIRSASGMHWYRQAPGKERELVASITTSGETTWYRDSVKGRFTISINNAKMMLYLQMNSLKFEDTAVYYCNLRSYWGQGTQVTVSS
notes: Llama VHH expressed in E. coli
B8: hMSLN-bioTP7-53 (VHH)
VHH: QVQLVESGGGLVQPGGSLRLACAASGGIGSLSNVRWYRQGPGKEREYVAGITGQSTTYYADSVKGRFTISRDNVKNTVDLQMNSLKPEDTAVYICNVATLRNEYWGQGTQVTVSS
notes: Llama VHH expressed in E. coli; also called VHH # 11
B9: hMSLN-TP7-75A (VHH)
VHH: QVQLVESGGGLVQAGGSLSLSCAASGRTFSASAMAWFRQAPGTDREFVAAVAWGGRDTHYADSVKGRFTISMNNAKNTVVLQMNSLKPEDTAVYYCAAGQRGWSHSTSRDYDYWGQGTQVTVSS
notes: Llama VHH expressed in E. coli; also called VHH # 12
B10: hMSLN-TP7-56 (VHH)
VHH: QVQLVESGGGLVQAGGSLRISCVASGRDFSSHFMGWSRQAPGKEREFVAAISWSGGTTYYADSVKGRFAISRDNDKTTVYLQMNSLKPEDSAVYYCAARRTYDSRTSLRNSYDYPYWGQGTQVTVSS
modifications: C-terminal His tag and AviTag (biotinylated in the Mirrorball assay) from vector pMRO; letters not given, left off
notes: Llama VHH expressed in E. coli; biotinylated form used in the Mirrorball assay; also called VHH # 7
B11: hMSLN-bioTP7-7 (VHH)
VHH: B5 VHH with D1Q, D6E, G72R, A101T
modifications: C-terminal His tag and AviTag from vector pMRO; letters not given, left off
notes: as for B7
B12: hMSLN-TP7-35 (VHH)
VHH: QVQLVDSGGGLVQPGGSLRLSCTTSASTFRFFAMHWYRQAPGKERELVAVISRDGDAEYVDSVKGRFTISRDNAKNAVYLQMNSLKPEDTAVYYCHTRILSDHYWGQGTQVTVSS
modifications: C-terminal His tag and AviTag from vector pMRO; letters not given, left off
notes: Llama VHH expressed in E. coli; also called VHH # 5
B13: hMSLN-TP7-38A (VHH)
VHH: B5 VHH with D1Q, Q3K, V5E, D6E, A14P, T31A, S57G, G72R, A101T
notes: Llama VHH expressed in E. coli; also called VHH # 6

molecular target: recombinant human mesothelin extracellular domain, isoform 1 (hMSLN-ECD, 10xHis) (human) (UniProt Q13421); test: SPR (Biacore T200), VHH over immobilized hMSLN-ECD; no rate constants printed

| Kd [nM] | Binder |
| --- | --- |
| 214 | B1 |
| 276 | B2 |

molecular target: human mesothelin on MSLN-positive cells (NCI-H292, SKOV3) (human) (UniProt Q13421); test: cell-based or functional assay
Sequence (Q13421 other isoform, or with tags, fused parts or gaps limits assumed): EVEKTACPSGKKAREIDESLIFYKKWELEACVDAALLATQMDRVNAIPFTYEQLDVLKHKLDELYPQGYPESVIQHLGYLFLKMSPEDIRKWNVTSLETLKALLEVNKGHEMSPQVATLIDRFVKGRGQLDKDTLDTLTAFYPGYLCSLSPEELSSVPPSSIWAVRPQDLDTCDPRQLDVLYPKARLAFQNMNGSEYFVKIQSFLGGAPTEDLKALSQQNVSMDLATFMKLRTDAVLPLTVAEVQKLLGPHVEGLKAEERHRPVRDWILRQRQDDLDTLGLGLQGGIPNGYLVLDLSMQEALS

| EC50 of CD69 staining of Jurkat cells in co-culture with MSLN+ H292 cells [nM] | Binder |
| --- | --- |
| 1 | B3 |

molecular target: T2, human mesothelin on MSLN-positive cells (NCI-H292, SKOV3) (human, UniProt Q13421 296-598); test: Mirrorball microplate cytometry on adherent NCI-H292 (MSLN-positive) cells, 2 h; biotinylated VHH detected with streptavidin-PE; MMFI
T2 construct: whole, on cells; Endogenous expression on tumour cell lines; H1581 and Raji cells served as MSLN-negative controls; also called cell surface MSLN
T2 sequence (Q13421 other isoform, or with tags, fused parts or gaps limits assumed): as above
Protocol: Cells (5000 cells well-1) were seeded in Nunc® MicroWell 96-well optical bottom plates (Sigma-Aldrich) and incubated at 37° C. in a humidified atmosphere containing 5% CO₂ for 24-48 h. Each anti-MSLN biotinylated VHH was serially diluted in Live Cell Imaging Solution (LCIS; Thermo Fisher) and 50 μL of each Ab variant was added to the assay plate and incubated at 4° C. for 2 h. As positive control, anti-MF-T (human IgG1) monoclonal antibody (NRC-HHT-Montreal) was used. The wells were washed with LCIS, then Biotin-Streptavidin, R-Phycoerythrin Conjugate (SAPE) or donkey anti-Human Alexa Fluor (AF488) (at 3 ug/ml final concentration) was added to the wells and incubated at 4° C. for 1 h. The secondary Ab was removed, the cells were washed with LCIS then 50 μL of DRAQ5 nuclear stain (1 μM prepared in LCIS; Cell Signaling, Danvers, MA, USA) was added to wells and incubated for 10 min at 4° C. […] Data were analyzed using Cellista software (TTP Labtech) and GraphPad Prism 6 software. […]
Cell binding activities of the selected VHHs were examined by Mirrorball where negative-(NCI-H1581) and positive (NCI-H292)-MSLN cells were cultured in 96 well plate and binding of the biotinylated VHHs was detected by Streptaviding-PE conjugate. As positive control, a human IgG1 mAb MF-T was used which was detected by donkey anti-human […].

| EC50 (read off the curve) [nM] | Binder |
| --- | --- |
| ~1 | B4 |
| ~3 | B5 |

molecular target: recombinant human mesothelin extracellular domain, isoform 1 (hMSLN-ECD, 10xHis) (human) (UniProt Q13421); test: SPR (Biacore T200), VHH over immobilized hMSLN-ECD, 1:1 model

| Kd [nM] | koff [s⁻¹] | kon [M⁻¹ s⁻¹] | Binder |
| --- | --- | --- | --- |
| 57.2 |  |  | B3 |
|  | 0.0138 |  | B6 |
| 0.0579 | 0.000176 | 3.04e+06 | B7 |
| 0.571 | 0.000433 | 758000 | B8 |
| 0.225 | 0.000388 | 1.72e+06 | B4 |
| 52 | 0.0305 | 587000 | B9 |
| 26.5 | 0.0201 | 757000 | B10 |
| 0.0924 | 0.000351 | 3.8e+06 | B11 |
| 1.34 | 0.00238 | 1.78e+06 | B5 |

molecular target: T1, recombinant mouse mesothelin …; test: SPR, VHH over immobilized mouse MSLN-ECD
Protocol: For surface Plasmon resonance, as mentioned above selected VHHs were passed though size exclusion columns, Superdex 75 (GE Healthcare), respectively, in 10 mM HEPES, pH 7.4, containing 150 mM NaCl, 3 mM EDTA, and monomeric sdAb fractions were collected and protein concentrations were determined by measuring absorbance at 280 nm (A280). SPR analysis were performed with Biacore T200 instrument (GE Healthcare). All measurements were carried out at 25° C. in 10 mM HEPES, pH 7.4, containing 150 mM NaCl, 3 mM EDTA and 0.005% surfactant P20 (GE Healthcare). Approximately 500 RUs of the recombinant monomeric human and mouse MSLN-ECD (obtained after SEC purification of the MSLN-ECD) were captured on SA sensor chip (GE Healthcare) at a flow rate of 5 uL/min. Various concentration of the monomeric VHHs (20-500 nM) were injected over MSLN-ECD surface, respectively using an SA surface as a reference at a flow rate of 40 μL/min. Surfaces were generated by washing with running buffer. Data were analysed with BIAevaluation 4.1 software.
The monomeric fraction of VHHs obtained by SEC purification were used for SPR experiment where the human or mouse MSLN-ECD was immobilized onto the […] and various VHH concentration (20-500 nM) were passed over the sensor chip. […] All of the data collected fit a 1:1 binding model (Table 3A).

| binding result | Kd [nM] | Binder |
| --- | --- | --- |
| no binding (tested: 20-500 nM) |  | B3 |
| no binding (tested: 20-500 nM) |  | B1 |
| no binding (tested: 20-500 nM) |  | B6 |
|  | 145 | B7 |
| no binding (tested: 20-500 nM) |  | B8 |
| no binding (tested: 20-500 nM) |  | B12 |
| no binding (tested: 20-500 nM) |  | B2 |
|  | 300 | B4 |
| no binding (tested: 20-500 nM) |  | B9 |
| no binding (tested: 20-500 nM) |  | B10 |
|  | 218 | B11 |
| no binding (tested: 20-500 nM) |  | B13 |
| no binding (tested: 20-500 nM) |  | B5 |
